B1: OR4K15 (parent)
chain: GUUAACGGUCAUAGGCCAUGGAAACUAGGAGCACCAUUUCGCUGCCAGUGAAGAAAUGAACAAAGAAAAUCUGGGCCAGGCAGGCAUCAAAAGAAAUAGUCUUGCGCUCAACCAGAAAGUCUGUAAUCAUUUUAAGGGUA

This data set covers variants of B1. Put plainly: self-cleavage, relative activity (ratio to wild type); higher = more cleavage; in vitro, sequencing; the parent is a self-cleaving ribozyme.
Turning to U87C C105A, the self-cleavage is 0.02.
As for U87C C105U, the self-cleavage was 0.13.
Regarding A89G A135G, the self-cleavage was determined as 1.68.
To A89G A135U belongs 1.15.
For the variant U87G U132C, the self-cleavage amounted to 0.88.
For A86U G123A the value was 1.59.
Consider A82G U100C, for which the self-cleavage was found to be 1.36.
As for A82C U120C, the self-cleavage was 0.11.
As to A89C G106C, the self-cleavage was 0.
In the case of A82U U122A, the self-cleavage is 0.16.
For the variant A82U U122C, the self-cleavage amounted to 0.17.
Take G84A A135G: the self-cleavage was found to be 2.3.
With A89G C113G, the self-cleavage came out at 0.01.
With A82G C109A, the self-cleavage came out at 0.05.
In the case of A86U U103C, the self-cleavage stood at 1.31.
As for A86U G93U, the self-cleavage came out at 2.01.
For A86U A96G, the self-cleavage amounted to 1.68.
Regarding A82G U130C, the self-cleavage came to 0.14.
C85U A125U: the self-cleavage was found to be 1.35.
Turning to A82G A117G, the self-cleavage is 0.85.
For A89G G115U, the self-cleavage amounted to 0.11.
To A86G U87A belongs 1.4; to A89G U100C, 2; to C85G A110G, 0.03.
Regarding A86G A92G, the self-cleavage came out at 1.07.
On to A82U U132C, for which the self-cleavage came out at 0.18.
For the variant G83U A116G, the self-cleavage amounted to 0.2.
For the variant A86U A116G, the self-cleavage is 0.59.
As to A86G U120A, the self-cleavage is 1.8.
Turning to C85A A98U, the self-cleavage worked out at 1.17.
To A86U A89G belongs 2.16; to A82G U127C, 0.22; to A89G A91G, 1.49.
As to C81A A114U, the self-cleavage amounted to 0.03.
Regarding A86U U139G, the self-cleavage worked out at 1.57.
For U87G A126G the value was 0.48; for A82U U124C, 0.18.
For the variant U87C G115U, the self-cleavage was 0.29.
For A82G U124C the value was 0.27; for A89G A92G, 1.02; for A89G A92U, 1.57.
For A82G U87A, the self-cleavage was determined as 0.32.
On to A82G U87C, for which the self-cleavage came out at 0.46.
For C85A G106U, the self-cleavage is 0.03.
To C88U U108C belongs 0.01.
Turning to A86G U127C, the self-cleavage is 1.22.
For A86G U127A the value was 1.76; for A82C A89C, 0.16.
Take U87C C112G: the self-cleavage amounted to 0.02.
U87C C112U: the self-cleavage is 0.02.
Turning to A89C A91G, the self-cleavage is 0.72.
For the variant A82G U139G, the self-cleavage stood at 0.26.
On to A82G U139A, for which the self-cleavage was found to be 0.23.
Consider A86C A89G, for which the self-cleavage was 1.17.
For A82C A116G the value was 0.09; for A82G A140U, 0.53; for A86G A91G, 0.16.
A86G A91U: the self-cleavage stood at 0.73.
On to C85G A125G, for which the self-cleavage was found to be 0.55.
For the variant A89G G123A, the self-cleavage was 1.52.
Consider A86U A114U, for which the self-cleavage was found to be 0.11.
Regarding A86U A114G, the self-cleavage was determined as 1.22.
For A89C C107U the value was 0.04; for G84U U130C, 0.28.
On to G83A U108C, for which the self-cleavage amounted to 0.02.
For G80U U100C, the self-cleavage is 0.16.
As to G84A U127C, the self-cleavage worked out at 2.46.
Turning to G84U A126G, the self-cleavage came out at 0.45.
In the case of C85U U127C, the self-cleavage stood at 0.82.
With G83A U122A, the self-cleavage came to 1.13.
On to A89G A126G, for which the self-cleavage was 0.6.
Take C85U A90C: the self-cleavage turned out to be 1.2.
Take U87A U132C: the self-cleavage was 1.35.
Consider A82C A118G, for which the self-cleavage turned out to be 0.11.
For A86G A95G, the self-cleavage was 1.72.
For U87C U130C the value was 0.55; for A82U A94G, 0.26; for G83A A135G, 1.3.
Turning to U87C U127C, the self-cleavage was determined as 0.64.
As to U87C U127A, the self-cleavage stood at 2.12.
As to U87C A110G, the self-cleavage was 0.1.
For U87C A110C the value was 0.12; for C85U A134G, 2.28; for A86G U124C, 0.3.
In the case of A82G A86G, the self-cleavage came out at 0.14.
A82C A96G: the self-cleavage came to 0.11.
For U87A U103C, the self-cleavage was 0.68.
To A86G A129C belongs 1.29.
In the case of A86G A129G, the self-cleavage was 0.22.
Consider A82U U130C, for which the self-cleavage was determined as 0.14.
For the variant C81U U108C, the self-cleavage worked out at 0.02.
For C81U U108A, the self-cleavage amounted to 0.02.
Take C88U A111G: the self-cleavage turned out to be 0.04.
With C85U U87C, the self-cleavage turned out to be 1.47.
A86G U108A: the self-cleavage came out at 0.01.
In the case of C85U U102C, the self-cleavage came to 0.67.
To U87C A91G belongs 1.06; to U87C A91U, 1.35; to U87C A92G, 0.43.
For A86U U133C the value was 2.71; for U87G A111G, 0.02; for A89G A140G, 1.55.
For A89G A140C the value was 0.99; for A89G A140U, 1.23; for U87C A89U, 0.65.
As to A82U A110G, the self-cleavage came out at 0.04.
Regarding A82U A140U, the self-cleavage amounted to 0.24.
A82U U139A: the self-cleavage is 0.18.
Take A86U A117G: the self-cleavage is 2.1.
Regarding A82G U102C, the self-cleavage turned out to be 1.16.
For A82G U102A the value was 0.34.
For U87G A95G, the self-cleavage was found to be 1.11.
Regarding U87C A125G, the self-cleavage is 0.41.
For U87C A125U, the self-cleavage came out at 1.74.
For C88G A129G the value was 2.37; for C81A A135G, 0.22.
Consider U87A U102C, for which the self-cleavage came to 1.71.
For A89G U102C the value was 1.68.
Consider C85G A126G, for which the self-cleavage was determined as 0.2.
As to U87G U127C, the self-cleavage came out at 0.22.
For A89G A95U the value was 1.95; for A89G A90U, 1.39.
For C88U U139A, the self-cleavage was 1.67.
As to U87A U131C, the self-cleavage came out at 1.67.
To G84C U127C belongs 0.22; to U87C U133A, 0.9.
For U87C U133C, the self-cleavage turned out to be 1.4.
For the variant G84A U122C, the self-cleavage is 2.09.
In the case of C81A A92G, the self-cleavage was 0.26.
Turning to A82G A114G, the self-cleavage was determined as 0.08.
For A82G A114U the value was 0.03.
Regarding U87G A91G, the self-cleavage is 0.11.
With U87C A111U, the self-cleavage was found to be 0.07.
As for C81A U122C, the self-cleavage came to 0.22.
Turning to A82U A91G, the self-cleavage came out at 0.11.
For the variant U87A U100G, the self-cleavage was 2.13.
As for U87C U97C, the self-cleavage was 1.63.
Turning to C85U U131C, the self-cleavage came out at 0.69.
Turning to U87C A118C, the self-cleavage came to 0.4.
Turning to U87C A140G, the self-cleavage is 1.49.
Take U87A U108C: the self-cleavage was 0.02.
As for A82G A91G, the self-cleavage came out at 0.12.
A86G A89U: the self-cleavage was 1.86.
In the case of A86C A94G, the self-cleavage stood at 0.32.
Turning to A86C A94U, the self-cleavage was 1.15.
For the variant G83A A98U, the self-cleavage was 1.82.
As for G84C U122C, the self-cleavage turned out to be 0.23.
As to A82U U127C, the self-cleavage came out at 0.13.
As to A82U U87A, the self-cleavage came out at 0.02.
G80U U120C: the self-cleavage came to 0.08.
As to G80U U139A, the self-cleavage worked out at 0.09.
As to U87C U139C, the self-cleavage is 0.35.
Regarding G83A U103C, the self-cleavage stood at 0.41.
For A86G U130A the value was 1.55; for A86G U130C, 1.2; for G84A A94G, 0.98.
For U87C A114U the value was 0.09.
A89C U132A: the self-cleavage amounted to 1.97.
With A86U A91G, the self-cleavage amounted to 1.93.
Take C85U A117G: the self-cleavage stood at 1.16.
A86U A110C: the self-cleavage was 0.36.
On to A86U A110G, for which the self-cleavage came out at 0.09.
For A89G A116C, the self-cleavage is 0.22.
With U87C A134G, the self-cleavage was 1.63.
In the case of U87A U130C, the self-cleavage was determined as 1.36.
For the variant A82G A125G, the self-cleavage stood at 0.23.
In the case of U87A A96U, the self-cleavage stood at 1.68.

The values above are taken from the RNAGym collection of RNA variant scans (doi:10.7554/elife.90254).
